According to patent publication US6376240:

Key:
[1] = system: recombinant His6-RFLAT-1 (C-terminal portion of RFLAT-1, amino acids 59-288)
[2] = target: RFLAT-1 full length (homo sapien) (UniProt Q9Y2Y9); assay: cell_activity; settings: Jurkat T cells
Sequence of RFLAT-1 full length (homo sapien) (Q9Y2Y9 other isoform, or with tags, fused parts or gaps): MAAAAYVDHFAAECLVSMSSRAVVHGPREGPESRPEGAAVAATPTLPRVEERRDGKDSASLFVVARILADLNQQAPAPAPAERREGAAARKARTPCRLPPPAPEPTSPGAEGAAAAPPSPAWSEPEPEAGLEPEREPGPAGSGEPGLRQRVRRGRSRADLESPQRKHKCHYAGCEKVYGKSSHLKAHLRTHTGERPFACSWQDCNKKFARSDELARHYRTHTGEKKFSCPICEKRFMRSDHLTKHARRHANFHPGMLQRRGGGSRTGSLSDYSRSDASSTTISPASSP

Sequence of recombinant His6-RFLAT-1 (C-terminal portion of RFLAT-1, amino acids 59-288) (chain, as listed by the source): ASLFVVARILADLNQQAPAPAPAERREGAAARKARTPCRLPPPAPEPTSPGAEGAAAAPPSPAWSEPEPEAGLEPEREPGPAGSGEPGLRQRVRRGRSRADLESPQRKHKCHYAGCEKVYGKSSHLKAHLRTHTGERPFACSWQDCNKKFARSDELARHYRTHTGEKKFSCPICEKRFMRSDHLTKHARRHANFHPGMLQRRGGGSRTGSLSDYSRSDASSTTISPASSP

## NILK
[1]
  phosphorylation of recombinant RFLAT-1 by immunoprecipitated kinase: the immunoprecipitated NILK from activated PBLs phosphorylates recombinant RFLAT-1

## RANTES promoter pGL2-R-luciferase
[2]; about 5 fold in NIH3T3
  activity (fold induction): 10

## three A/B sites luciferase reporter
[2]; similar degree of induction
  activity (fold induction): 10
